Data from patent US20140170136A1 (NVIP, published 2014).

Legend:
[1] = target: T1, complement C1q (from human serum) (human, UniProt P02745 23-245; P02746 28-253; P02747 29-245); assay: ELISA: antibody captured on NGF-coated plate, human serum 1/100, bound C1q detected with anti-C1q-HRP, OD450
T1 construct: mature; Native C1q in human serum diluted 1/100
Description: Protein A purified transfectant supernatants from Example 2 were incubated with plates coated with 0.1 ng/mL NGF to capture the antibodies. The plates were washed and then incubated with human serum and bound complement C1q was measured by binding of anti-human C1q polyclonal antibody HRP and developed as above. The binding of C1q to antigen-captured “eqN-HC2+eqN-kLC-1” was compared to a human anti-NGF MAb with human IgG1 Fc domain as positive control and an IgG4 variant as negative control.
Plates were coated with 100 μl/well of 5 μg/ml mouse NGF and blocked with 5% BSA/PBS. Coated wells were incubated for 1 hour at room temperature with cell culture supernatants, containing recombinant equine anti-NGF IgG, diluted in PBS/1% BSA (100 μl/well). The plates were washed and incubated for 1 hour at room temperature with 100 μl/well of human serum diluted 1/100 in veronal buffered saline containing 0.5 mM MgCl₂, 2 mM CaCl2, 0.05% Tween-20, 0.1% gelatin and 0.5% BSA. After washing, plates were incubated with 100 μl of a 1/800 dilution of sheep anti-C1q-HRP (Serotec) in PBS/1% BSA. After washing, plates were developed by the addition of 100 μl TMB substrate (Thermo Scientific). Development was stopped by the addition of 100 μl of 2N H₂SO₄ and absorbance read at 450 nm.

[2] = target: T2, murine NGF (mouse, UniProt P01139 122-241); assay: ELISA: CHO supernatant on NGF, goat anti-equine IgG-HRP, OD450, against mock supernatant
T2 construct: Coated on the ELISA plate; also called mouse NGF
T2 sequence (P01139 122-241 limits assumed): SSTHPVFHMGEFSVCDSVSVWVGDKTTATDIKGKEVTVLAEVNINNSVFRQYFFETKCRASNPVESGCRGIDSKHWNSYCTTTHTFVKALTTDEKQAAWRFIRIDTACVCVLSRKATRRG
Description: Equinised heavy and light chain cDNAs were transfected into CHO cells, the supernatants harvested and reacted in ELISA format with either equine or murine NGF. Following incubation and wash steps, the bound equine antibody was detected by reactivity with a goat-anti equine IgG specific polyclonal antibody linked to horseradish peroxidase (HRP) and developed using TMB. The optical density of the resulting product was measured at 450 nm and compared with that from mock empty vector transfected supernatant (denoted as “Mock” in FIG. 1). The results are shown in the graph of FIG. 1. Binding to mouse NGF is shown for the HC2 (IgG2 constant domain) equinised antibody (termed eqN-HC2+eqN-kLC-1). In the second part of the graph, binding of the eqN-HC2+eqN-kLC-1 antibody comprising the eqN-kLC-1 light chain and the eqN-HC2 (IgG2) constant chain to equine NGF is shown.

[3] = target: T3, Protein A (UniProt P38507 37-327); assay: Protein A affinity chromatography of CHO supernatant; antibody in fractions measured by quantitative NGF ELISA
T3 construct: Column resin

T1 sequence (P02745 23-245, chain 1 of 3): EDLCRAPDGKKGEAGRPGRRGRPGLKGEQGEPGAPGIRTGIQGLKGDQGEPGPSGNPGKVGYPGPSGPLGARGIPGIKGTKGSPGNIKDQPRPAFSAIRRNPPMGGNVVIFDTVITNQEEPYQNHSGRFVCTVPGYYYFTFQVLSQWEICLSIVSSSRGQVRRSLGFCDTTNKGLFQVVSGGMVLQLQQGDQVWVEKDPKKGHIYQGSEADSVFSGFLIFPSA
T1 sequence (P02746 28-253, chain 2 of 3): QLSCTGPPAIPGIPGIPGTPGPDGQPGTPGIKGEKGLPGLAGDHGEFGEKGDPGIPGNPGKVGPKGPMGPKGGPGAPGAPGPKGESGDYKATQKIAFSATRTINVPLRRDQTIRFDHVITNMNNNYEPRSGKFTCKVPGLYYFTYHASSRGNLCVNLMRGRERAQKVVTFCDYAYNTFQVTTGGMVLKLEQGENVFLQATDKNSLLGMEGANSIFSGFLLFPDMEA
T1 sequence (P02747 29-245, chain 3 of 3): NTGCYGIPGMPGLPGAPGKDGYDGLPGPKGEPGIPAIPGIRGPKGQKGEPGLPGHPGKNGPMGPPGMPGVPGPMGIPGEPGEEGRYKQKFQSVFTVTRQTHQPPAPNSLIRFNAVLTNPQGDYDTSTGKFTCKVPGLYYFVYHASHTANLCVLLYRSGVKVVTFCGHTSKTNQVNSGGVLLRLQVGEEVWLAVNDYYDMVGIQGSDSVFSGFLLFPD

Binder	binding result [1]	binding result [2]	binding result [3]
eqN-HC2+eqN-kLC-1 (equinised αD11 anti-NGF antibody comprising the eqN-kLC-1 light chain and the eqN-HC2 (IgG2) heavy chain) (antibody, Tested as CHO transfectant supernatant or after Protein A purification; also called HC2 (IgG2 constant domain) equinised antibody; equinised HC2 antibody) heavy: QVQLKESGPGLVNPSQTLSLTCTVSGFSLTNNNVNWVRQAPGKGLEWVGGVWAGGATDYNSALKSRATITRDTSKSQVFLQMNSLTSEDTAVYYCARDGGYSSSTLYAMDAWGQGILVTVSSASTTAPKYFQLTPSCGITSDATVALGCLVSDYYPEPVTVSWNSGALTSGVHTFPSVLQSSGLYALSSMVTVPASTWTSETYICNVAHPASSTKVDKRIPPCVLSAEGVIPIPSVPKPQCPPYTHSKFLGGPSVFIFPPNPKDALMISRTPVVTCVVVNLSDQYPDVQFSWYVDNTEVHSAITKQREAQFNSTYRVVSVLPIQHQDWLSGKEFKCSVTNVGVPQPISRAISRGKGPSRVPQVYVLPPHPDELAKSKVSVTCLVKDFYPPDISVEWQSNRWPELEGKYSTTPAQLDGDGSYFLYSKLSLETSRWQQVESFTCAVMHEALHNHFTKTDISESLGK light: DIVMTQSPASLSASLGETVTIECRASEDIYNALAWYQQKPGQSPKLLIYNTDTLHTGVPSRFSGSGSGTDYSLTINSLQSEDVASYFCQHYFHYPRTFGQGTKLELKRDDAKPSAFIFPPSSEELSSGSASVVCLVYGFYPSGATINWKVDGLAKTSSFHSSLTEQDSKDNTYSLSSTLTLPKADYEAHNVYACEVSHKTLSSPLVKSFKRQDC	no binding	binds	
HC6 variant of equinised αD11 (equinised anti-NGF antibody with eqN-HC6 heavy chain and equine kappa light chain) (antibody, also called HC6 antibody; type 6 (HC6) antibody) heavy: QVQLKESGPGLVNPSQTLSLTCTVSGFSLTNNNVNWVRQAPGKGLEWVGGVWAGGATDYNSALKSRATITRDTSKSQVFLQMNSLTSEDTAVYYCARDGGYSSSTLYAMDAWGQGILVTVSSASTTAPKVFQLASHSAGTSDSTVALGCLVSSYFPEPVTVSWNSGALTSGVHTFPSVRQSSGLYSLSSMVTVPASSLKSQTYICNVAHPASSTKVDKRIVIKEPCCCPKCPGRPSVFIFPPNPKDTLMISRTPEVTCVVVDVSQENPDVKFNWYVDGVEAHTATTKAKEKQDNSTYRVVSVLPIQHQDWRRGKEFKCKVNNRALPAPVERTITKAKGELQDPKVYILAPHREEVTKNTVSVTCLVKDFYPPDINVEWQSNEEPEPEVKYSTTPAQLDGDGSYFLYSKLTVETDRWEQGESFTCVVMHEAIRHTYRQKSITNFPGK light: DIVMTQSPASLSASLGETVTIECRASEDIYNALAWYQQKPGQSPKLLIYNTDTLHTGVPSRFSGSGSGTDYSLTINSLQSEDVASYFCQHYFHYPRTFGQGTKLELKRDDAKPSAFIFPPSSEELSSGSASVVCLVYGFYPSGATINWKVDGLAKTSSFHSSLTEQDSKDNTYSLSSTLTLPKADYEAHNVYACEVSHKTLSSPLVKSFKRQDC			no binding
